Patent publication US20040258659A1

Biological target: CCR5 (UniProt P51681)
Assay: cell-based or functional assay

CCR5, sequence (P51681 whole entry): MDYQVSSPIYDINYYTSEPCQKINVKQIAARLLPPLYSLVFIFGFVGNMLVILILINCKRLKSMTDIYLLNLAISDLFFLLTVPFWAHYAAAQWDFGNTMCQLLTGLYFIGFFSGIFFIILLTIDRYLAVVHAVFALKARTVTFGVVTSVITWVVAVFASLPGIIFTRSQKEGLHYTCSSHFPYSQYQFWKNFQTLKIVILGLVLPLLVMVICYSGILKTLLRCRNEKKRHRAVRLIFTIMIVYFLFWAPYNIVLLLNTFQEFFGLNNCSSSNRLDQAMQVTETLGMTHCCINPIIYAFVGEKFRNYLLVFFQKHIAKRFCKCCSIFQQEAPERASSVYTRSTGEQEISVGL

## aminooxypentane(AOP)-RANTES (from UniProt P13501 24-91) (ligand)
  IC50, R5-tropic envelope-mediated cell fusion assay: 3 nM
